Test [1] addresses AtUBC8 (Arabidopsis thaliana ubiquitin conjugating enzyme E2 8), 6xHIS-tagged (Arabidopsis thaliana) (UniProt P35131). Put plainly: Delta G calculated for residues 74-82 of AtMUB3 within the co-crystal structure; unit not given.
Test [2] shares this target. Put plainly: interface area calculated for residues 74-82 of AtMUB3 within the co-crystal structure.
Test [3] deals with T1, AtUBC8 (Arabidopsis thaliana ubiquitin conjugating enzyme E2 8), 6xHIS-tagged (Arabidopsis thaliana, UniProt P35131 1-148).
T1 construct: The crystal model holds residues 1-147/1-148; also called AtUBC08; not shown: 6xHIS tag
T1 sequence (P35131 whole entry, the tested form may be a part): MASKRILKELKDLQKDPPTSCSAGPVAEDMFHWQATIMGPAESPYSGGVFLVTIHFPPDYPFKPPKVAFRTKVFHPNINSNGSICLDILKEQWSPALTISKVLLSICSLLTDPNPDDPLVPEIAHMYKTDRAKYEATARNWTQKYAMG
Nature of the test: Isothermal titration calorimetry (MicroCal iTC200), 110 uM AtMUB3 titrated into 8 uM AtUBC8, OneSites model; 25 mM HEPES pH 7.5, 200 mM NaCl, 1 mM TCEP. Here is the method:
FIG. 13. […] Proteins were purified as described for crystallization and dialyzed extensively against a buffer containing 25 mM HEPES, pH 7.5, 200 mM NaCl, 1 mM TCEP. Data was processed with MicroCal Origin 7 software, and normalized against the dialysis buffer's heat of dilution.

Test [4] addresses T2, biotinylated E2 (Ube2D3), from the E1/E2 Lite kit (LifeSensors) (UniProt P61077 1-147, limits assumed, biotinylated (site not stated); labelled with streptavidin-terbium in the assay).
T2 construct: Bought kit reagent; also called biotinylated Ube2D3
Put plainly: HTRF-FRET E2 activation assay; initial velocity against HsMUB concentration, one-site binding fit; IC50 equal to Ki under limiting E2.

The text below walks through data of patent US20190085314A1 (SAINT LOUIS UNIVERSITY, published 2019).

Sequence of AtUBC8 (Arabidopsis thaliana ubiquitin conjugating enzyme E2 8), 6xHIS-tagged (Arabidopsis thaliana) (P35131 whole entry, the tested form may be a part): as above
T2 sequence (P61077 whole entry): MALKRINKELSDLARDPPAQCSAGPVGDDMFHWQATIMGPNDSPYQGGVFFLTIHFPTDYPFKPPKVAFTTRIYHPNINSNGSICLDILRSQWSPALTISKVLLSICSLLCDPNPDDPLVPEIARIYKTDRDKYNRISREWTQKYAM

For “AtMUB3 (74-82) (from UniProt Q9SW27 74-82)”, the Delta G in test [1] was -5. Moreover, the Surface area (Å^2) in test [2] is 288 Å^2.

B1: AtMUB3 (Arabidopsis thaliana Membrane-anchored Ubiquitin-fold protein 3), 6xHIS-tagged (other, UniProt Q9SW27 1-118, looked up)
chain: MPEEESIDIKFRLYDGSDIGPFRYSAASTVDFLKQRVVSDWPKGKTVVPKGINEVKLISSGKILENNKTVGQCKTPFGDIAGGVIVMHVVVQPSLAKSKTEKKVDKAPKAVICTCTIL
notes: Expressed in E. coli, so not prenylated; An N-terminal 6xHIS AtMUB3 is also described; also called AtMUB3-His; not shown: C-terminal 6xHIS tag from pET28b
Broadly, the Kd is the concentration at which binding is half-saturated. Low readings indicate tighter binding, high ones weaker binding. In test [3], B1 registered a Ka of 3.53e+06 M⁻¹, a Kd of 283 nM, a ΔH of -8.84 kcal/mol and a ΔS of 0.331 cal/mol/deg.

B2: HsMUB (Homo sapiens Membrane-anchored Ubiquitin-fold protein), C-terminal 6xHIS (other)
chain: MSSNVPADMINLRLILVSGKTKEFLFSPNDSASDIAKHVYDNWPMDWEEEQVSSPNILRLIYQGRFLHGNVTLGALKLPFGKTTVMHLVARETLPEPNSQGQRNREKTGESNCCVIL
notes: The coding region was cloned with the stop codon removed; also called Ubl3; human MUB; not shown: C-terminal 6xHIS tag from pET28b
As a reminder, the Ki is a dissociation constant, usually derived from enzyme kinetics or from competition with a known ligand. In the case of B2, the Ki in test [4] worked out at 220 nM.
